According to PMC2744881 (Journal of molecular biology, 2009):
Positions count from the first letter of the chain named. Numbers in names are those of the source.

T1: SufD of the purified SufB-SufC-SufD complex (E. coli, UniProt P77689 1-423)
T1 sequence: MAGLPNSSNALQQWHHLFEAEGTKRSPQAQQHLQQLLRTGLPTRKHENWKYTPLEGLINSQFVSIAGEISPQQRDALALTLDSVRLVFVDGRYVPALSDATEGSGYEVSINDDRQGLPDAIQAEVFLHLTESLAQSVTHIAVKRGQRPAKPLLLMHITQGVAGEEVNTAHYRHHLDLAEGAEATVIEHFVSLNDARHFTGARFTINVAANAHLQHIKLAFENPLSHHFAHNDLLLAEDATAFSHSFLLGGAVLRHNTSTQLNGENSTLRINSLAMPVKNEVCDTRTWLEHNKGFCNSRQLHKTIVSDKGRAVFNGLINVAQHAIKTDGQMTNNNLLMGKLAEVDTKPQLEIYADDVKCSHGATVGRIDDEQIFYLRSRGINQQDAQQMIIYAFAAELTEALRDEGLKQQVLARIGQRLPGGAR

T2: N-terminally His10-tagged SufC protein (E. coli, UniProt P77499 1-248)
T2 sequence (looked up): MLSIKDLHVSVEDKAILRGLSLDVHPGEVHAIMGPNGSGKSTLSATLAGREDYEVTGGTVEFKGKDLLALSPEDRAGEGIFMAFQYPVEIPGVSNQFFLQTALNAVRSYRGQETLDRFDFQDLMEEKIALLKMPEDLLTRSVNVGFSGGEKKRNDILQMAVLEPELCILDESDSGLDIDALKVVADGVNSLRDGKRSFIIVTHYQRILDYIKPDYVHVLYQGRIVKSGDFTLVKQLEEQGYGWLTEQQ

B1: SufB of the purified SufB-SufC-SufD complex (natural protein, E. coli, UniProt P77522 1-495, looked up)
chain: MSRNTEATDDVKTWTGGPLNYKEGFFTQLATDELAKGINEEVVRAISAKRNEPEWMLEFRLNAYRAWLEMEEPHWLKAHYDKLNYQDYSYYSAPSCGNCDDTCASEPGAVQQTGANAFLSKEVEAAFEQLGVPVREGKEVAVDAIFDSVSVATTYREKLAEQGIIFCSFGEAIHDHPELVRKYLGTVVPGNDNFFAALNAAVASDGTFIYVPKGVRCPMELSTYFRINAEKTGQFERTILVADEDSYVSYIEGCSAPVRDSYQLHAAVVEVIIHKNAEVKYSTVQNWFPGDNNTGGILNFVTKRALCEGENSKMSWTQSETGSAITWKYPSCILRGDNSIGEFYSVALTSGHQQADTGTKMIHIGKNTKSTIISKGISAGHSQNSYRGLVKIMPTATNARNFTQCDSMLIGANCGAHTFPYVECRNNSAQLEHEATTSRIGEDQLFYCLQRGISEEDAISMIVNGFCKDVFSELPLEFAVEAQKLLAISLEHSVG
B2: SufC of the purified SufB-SufC-SufD complex (natural protein, E. coli)
chain: T2 sequence (looked up)
B3: SufD protein (natural protein, E. coli, UniProt P77689 1-423, looked up)
chain: T1 sequence
B4: N-terminal His-tag SufD with H360S mutation (natural protein, E. coli)
chain: T1 sequence with H360S
B5: N-terminal His-tag SufD with H360C mutation (natural protein, E. coli)
chain: T1 sequence with H360C
B6: wild-type SufD (reference of the gel filtration of His-tagged SufD proteins) (natural protein, E. coli)
chain: T1 sequence

Key:
[1] = molecular target: T1, SufD of the purified SufB-SufC-SufD …; assay: SEC
[2] = molecular target: B1; assay: SEC
crystal structure = molecular target: the molecule itself; assay: crystal structure
[3] = molecular target: T2, N-terminally His10-tagged SufC protein; assay: SEC
SEC = molecular target: the molecule itself; assay: SEC

Row | stoichiometry N [1] | Binder | stoichiometry N (SEC) | also measured
1 | ~1 | B1 | – | –
2 | ~2 | B2 | – | stoichiometry N [2]: ~2
3 | – | B3 | – | stoichiometry N (crystal structure): 2; stoichiometry N [3]: ~1
4 | – | B4 | 2 | –
5 | – | B5 | 2 | –
6 | – | B6 | 2 | –
